Measured values published in patent US5834184A, “In vivo selection of RNA-binding peptides” (priority 1995, dated 1998).

B1: N: wild-type phage λ N antiterminator protein (protein, UniProt P03045 1-107, looked up)
Antitermination protein N: MDAQTRRRERRAEKQAQWKAANPLLVGVSAKPVNRPILSLNRKPKSRVESALNPIDLTVLAEYHKQIESNLQRIERKNQRTWYSKPGERGITCSGRQKIKGKSIPLI

Columns and labels:
[1] = Circular dichroism, helical content of synthetic peptides; format: physicochemical; settings: estimated from ellipticity at 222 nm; 10 mM potassium phosphate pH 7.5, 100 mM KF, 4° C. (FIG. 4B)
Protocol: FIG. 4B: Circular dichroism spectra of Rev34-40 (.box-solid.), Rev34-47 (S34) (.smallcircle.), Rev-like peptide clone 24 (.quadrature.), clone 57 peptide (.circle-solid.), and clone 41 peptide (.diamond.).
Circular dichroism was used to assess whether the selected peptides adopted α-helical conformations. Circular dichroism spectra were measured using an Aviv model 62DS spectropolarimeter. Samples were prepared in 10 mM potassium phosphate buffer, pH 7.5 and 100 mM KF. Spectra were recorded using a 1 cm pathlength cuvette at 4° C. and signal was averaged for 5 sec at each wavelength. Scans were repeated five times and averaged.

BIV TAR = assay: Antitermination assay (β-galactosidase reporter in E. coli), BIV TAR reporter; format: cell-based; parameters: key to X-gal: +++++, 200 units β-galactosidase/1 OD600 unit cells; ++++, 100-200 units; +++, 10-100 units; ++, 2-10 units; +, 1-10 units; -, background; settings: BIV TAR reporter (Table 1)
Description: (§1) Synthetic oligonucleotide cassettes encoding HIV Rev (ma[…]-aaaan) (SEQ ID NO: 26), BIV Tat (mg[…]gggn) (SEQ ID NO: 27), and HIV Tat ([…]) (SEQ ID NO: 28) peptides were cloned into the unique BsmI and NcoI sites of pBRptacN^* (Franklin, J. Mol Biol 231, 343 (1993)), creating fusion proteins at amino acid 20 of the λ N protein. The sequence encoding the fusion protein was linked to a tac promoter.
(§2) A second pACYC-derived vector was constructed encoding a tac promoter linked to the phage λ termination site Nut and a β-galactosidase structural gene. […]
(§3) Plasmids were transformed into E. coli strain N567 (Franklin & Doelling, J. Bacteriol. 171, 2513 (1989)) and bacteria were grown on LB plates or in tryptone broth containing 50 mg/l ampicillin and/or 15 mg/l chloramphenicol. In the β-galactosidase colony color assay, the number of +s represents visual estimation of blue intensity after growing colonies on plates containing 0.08 mg/ml X-gal and 0.024 mg/ml IPTG (to induce the tac promoters) for ~48 hr at 34° C. β-galactosidase activity was also measured in permeabilized cells using an ONPG colorimetric assay (Sambrook et al. Molecular Cloning (Cold Spring Harbor Laboratory Press, Cold Spring Harbor, 1989)). […]

[2] = tested on: Nut^- (a Nut site deletion) reporter; assay: Antitermination assay (β-galactosidase reporter in E. coli), Nut^- reporter; format: cell-based, phage λ; parameters: key to X-gal: +++++, 200 units β-galactosidase/1 OD600 unit cells; ++++, 100-200 units; +++, 10-100 units; ++, 2-10 units; +, 1-10 units; -, background
Description: as §1, §2, §3

[3] = tested on: Nut reporter (λ Nut site, Box B); assay: Antitermination assay (β-galactosidase reporter in E. coli), Nut reporter; format: cell-based, phage λ
Description: as §1, §2, §3

HIV TAR = assay: Antitermination assay (β-galactosidase reporter in E. coli), HIV TAR reporter; format: cell-based; parameters: key to X-gal: +++++, 200 units β-galactosidase/1 OD600 unit cells; ++++, 100-200 units; +++, 10-100 units; ++, 2-10 units; +, 1-10 units; -, background
Description: as §1, §2, §3

HIV RRE = assay: Antitermination assay (β-galactosidase reporter in E. coli), HIV RRE reporter; format: cell-based; parameters: key to X-gal: +++++, 200 units β-galactosidase/1 OD600 unit cells; ++++, 100-200 units; +++, 10-100 units; ++, 2-10 units; +, 1-10 units; -, background; settings: HIV RRE reporter (Table 1)
Description: as §1, §2, §3

[4] = colony colour on X-gal/IPTG plates
[5] = permeabilized cells, 1 hr IPTG induction

| Molecule | helical content [1] | X-gal (BIV TAR; [4]) | ONPG (BIV TAR; permeabilized cells) | X-gal ([2]; colony colour on X-gal/IPTG plates ~48 hr at 34° C., E. coli N567) | ONPG [2, 5] | X-gal ([3]; colony colour on X-gal/IPTG plates ~48 hr at 34° C.) | ONPG [3, 5] | X-gal (HIV TAR; [4]) | ONPG (HIV TAR; permeabilized cells) | X-gal (HIV RRE; [4]) | ONPG (HIV RRE; permeabilized cells) |
| --- | --- | --- | --- | --- | --- | --- | --- | --- | --- | --- | --- |
| 14 amino acid wild-type Rev peptide: synthetic 14 amino acid Rev peptide, succinyl capped, four alanines and amide at the C-terminus | 11% |  |  |  |  |  |  |  |  |  |  |
| B1 |  | - | 2.9 units β-galactosidase/1 OD600 | - | 1.9 units β-galactosidase/1 OD600 | +++++ (+++++, 200 units β-galactosidase/1 OD600 unit cells) | 1020 units β-galactosidase/1 OD600 | - | 2.4 units β-galactosidase/1 OD600 | - | 2.5 units β-galactosidase/1 OD600 |
